B1: NP_015628.1 (parent)
chain: EQRNSRWNTVLRAVKAKTHHLEP

Variants of: B1
Experiment: protein stability index of a GFP-peptide fusion (GPS, HEK-293T) (PSI 1-6); higher = more stable
Conditions: c terminus: native
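Further: lentivirally expressed fusion library, cells FACS-sorted into six equal-sized GFP/DsRed ratio bins, PSI computed from sequencing read fractions per bin weighted by bin number.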

Variant | protein stability index
EQRISRWNTVLRAVKAKTHHLEP | 2.94
EQRDSRWNTVLRAVKAKTHHLEP | 3.22
EQRSSRWNTVLRAVKAKTHHLEP | 3.05
EQRCSRWNTVLRAVKAKTHHLEP | 2.73
EQRMSRWNTVLRAVKAKTHHLEP | 2.94
EQRRSRWNTVLRAVKAKTHHLEP | 2.96
EQRWSRWNTVLRAVKAKTHHLEP | 2.4
EQRPSRWNTVLRAVKAKTHHLEP | 2.67
EQRFSRWNTVLRAVKAKTHHLEP | 3.17
EQRGSRWNTVLRAVKAKTHHLEP | 3.71
EQRHSRWNTVLRAVKAKTHHLEP | 2.48
EQRTSRWNTVLRAVKAKTHHLEP | 3.23
EQRLSRWNTVLRAVKAKTHHLEP | 2.87
EQRNSPWNTVLRAVKAKTHHLEP | 2.51
EQRNSVWNTVLRAVKAKTHHLEP | 3.23
EQRNSIWNTVLRAVKAKTHHLEP | 3.4
EQRNSHWNTVLRAVKAKTHHLEP | 3.45
EQRNSTWNTVLRAVKAKTHHLEP | 2.48
EQRNSMWNTVLRAVKAKTHHLEP | 2.72
EQRNSLWNTVLRAVKAKTHHLEP | 2.97
EQRNSNWNTVLRAVKAKTHHLEP | 2.67
EQRNSQWNTVLRAVKAKTHHLEP | 2.62
EQRNSDWNTVLRAVKAKTHHLEP | 2.7
EQRNSKWNTVLRAVKAKTHHLEP | 2.67

Variant | protein stability index
EQRNSSWNTVLRAVKAKTHHLEP | 2.4
EQRNSWWNTVLRAVKAKTHHLEP | 2.07
EQRNSGWNTVLRAVKAKTHHLEP | 3.11
EQRNSEWNTVLRAVKAKTHHLEP | 3.39
EQRNSAWNTVLRAVKAKTHHLEP | 2.85
EQRNSYWNTVLRAVKAKTHHLEP | 2.94
EQRNSCWNTVLRAVKAKTHHLEP | 2.45
EQRNSFWNTVLRAVKAKTHHLEP | 3.03
EFRNSRWNTVLRAVKAKTHHLEP | 3.02
EDRNSRWNTVLRAVKAKTHHLEP | 3.43
ELRNSRWNTVLRAVKAKTHHLEP | 2.84
EVRNSRWNTVLRAVKAKTHHLEP | 2.76
ECRNSRWNTVLRAVKAKTHHLEP | 2.93
EARNSRWNTVLRAVKAKTHHLEP | 2.98
EHRNSRWNTVLRAVKAKTHHLEP | 3.12
EMRNSRWNTVLRAVKAKTHHLEP | 3.12
EWRNSRWNTVLRAVKAKTHHLEP | 2.78
EYRNSRWNTVLRAVKAKTHHLEP | 2.97
ESRNSRWNTVLRAVKAKTHHLEP | 2.87
ETRNSRWNTVLRAVKAKTHHLEP | 2.38
EERNSRWNTVLRAVKAKTHHLEP | 3.55
EKRNSRWNTVLRAVKAKTHHLEP | 2.71
EGRNSRWNTVLRAVKAKTHHLEP | 2.74
ENRNSRWNTVLRAVKAKTHHLEP | 2.88

Variant | protein stability index
EPRNSRWNTVLRAVKAKTHHLEP | 3.06
ERRNSRWNTVLRAVKAKTHHLEP | 2.9
EIRNSRWNTVLRAVKAKTHHLEP | 3.24
EQRNVRWNTVLRAVKAKTHHLEP | 2.43
EQRNTRWNTVLRAVKAKTHHLEP | 2.93
EQRNPRWNTVLRAVKAKTHHLEP | 2.78
EQRNARWNTVLRAVKAKTHHLEP | 2.67
EQRNRRWNTVLRAVKAKTHHLEP | 2.42
EQRNDRWNTVLRAVKAKTHHLEP | 2.96
EQRNMRWNTVLRAVKAKTHHLEP | 2.4
EQRNLRWNTVLRAVKAKTHHLEP | 2.48
EQRNWRWNTVLRAVKAKTHHLEP | 2.46
EQRNHRWNTVLRAVKAKTHHLEP | 2.62
EQRNYRWNTVLRAVKAKTHHLEP | 2.38
EQRNCRWNTVLRAVKAKTHHLEP | 2.46
EQRNFRWNTVLRAVKAKTHHLEP | 2.61
EQRNKRWNTVLRAVKAKTHHLEP | 2.28
EQRNGRWNTVLRAVKAKTHHLEP | 3.32
EQRNERWNTVLRAVKAKTHHLEP | 2.91
EQRNQRWNTVLRAVKAKTHHLEP | 2.67
EQGNSRWNTVLRAVKAKTHHLEP | 3.58
EQPNSRWNTVLRAVKAKTHHLEP | 3.25
EQFNSRWNTVLRAVKAKTHHLEP | 3.35
EQINSRWNTVLRAVKAKTHHLEP | 3.09

Variant | protein stability index
EQSNSRWNTVLRAVKAKTHHLEP | 3.47
EQDNSRWNTVLRAVKAKTHHLEP | 3.97
EQQNSRWNTVLRAVKAKTHHLEP | 2.71
EQNNSRWNTVLRAVKAKTHHLEP | 3.07
EQWNSRWNTVLRAVKAKTHHLEP | 2.7
EQCNSRWNTVLRAVKAKTHHLEP | 3.3
EQKNSRWNTVLRAVKAKTHHLEP | 2.79
EQHNSRWNTVLRAVKAKTHHLEP | 2.99
EQENSRWNTVLRAVKAKTHHLEP | 3.33
EQVNSRWNTVLRAVKAKTHHLEP | 2.99
EQMNSRWNTVLRAVKAKTHHLEP | 3.25
EQANSRWNTVLRAVKAKTHHLEP | 3.25
EQTNSRWNTVLRAVKAKTHHLEP | 2.9
EQLNSRWNTVLRAVKAKTHHLEP | 3.23
EQYNSRWNTVLRAVKAKTHHLEP | 3.7
EQRNSRWITVLRAVKAKTHHLEP | 2.6
EQRNSRWHTVLRAVKAKTHHLEP | 2.64
EQRNSRWGTVLRAVKAKTHHLEP | 2.49
EQRNSRWCTVLRAVKAKTHHLEP | 2.01
EQRNSRWLTVLRAVKAKTHHLEP | 2.29
EQRNSRWDTVLRAVKAKTHHLEP | 2.52
EQRNSRWFTVLRAVKAKTHHLEP | 2.8
EQRNSRWETVLRAVKAKTHHLEP | 1.92
EQRNSRWATVLRAVKAKTHHLEP | 1.94

— the supplement of paper PMC10567573
